Laboratory results reported in the supplement of paper PMC9112550, “Optimization of the antimicrobial peptide Bac7 by deep mutational scanning” (BMC Biology, 2022).

test system: Escherichia coli TOP10; assay: shrunken log2 fold change of peptide-encoding DNA abundance (4.5 h post-induction vs induction); higher = less antimicrobial activity (less host growth inhibition); conditions: time post-induction: 4.5 h; library: site-saturation at positions 5, 18, 19, 20
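Also: peptides expressed intracellularly from a pBAD plasmid library in pooled LB shake-flask culture, induced with 0.3% L-arabinose, DNA abundance read by NGS, three biological replicates, DESeq2 with apeglm shrinkage.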

Sequence | shrunken log2 fold change
RRIRVRPPRLPRPRPRPETFPRP | -0.0527
RRIRSRPPRLPRPRPRPLWRPRP | 0.303
RRIRYRPPRLPRPRPRPAGEPRP | -0.148
RRIRFRPPRLPRPRPRPQDHPRP | -0.391
RRIRLRPPRLPRPRPRPLFRPRP | -0.388
RRIRRRPPRLPRPRPRPSPPPRP | 0.435
RRIRDRPPRLPRPRPRPNHQPRP | -0.303
RRIRSRPPRLPRPRPRPCQMPRP | 0.0312
RRIRLRPPRLPRPRPRPPQYPRP | -0.0075
RRIRNRPPRLPRPRPRPDGRPRP | -0.109
RRIRERPPRLPRPRPRPTKYPRP | -0.568
RRIRHRPPRLPRPRPRPNHYPRP | -0.939
RRIRYRPPRLPRPRPRPMSFPRP | -0.00962
RRIRMRPPRLPRPRPRPWKLPRP | -0.133
RRIRQRPPRLPRPRPRPHCVPRP | -0.0218
RRIRDRPPRLPRPRPRPGYFPRP | -1.25
RRIRCRPPRLPRPRPRPRSLPRP | 0.197
RRIRCRPPRLPRPRPRPIIPPRP | -0.645
RRIRMRPPRLPRPRPRPNVVPRP | -0.0912
RRIRQRPPRLPRPRPRPTVNPRP | -0.0853
RRIRARPPRLPRPRPRPGTRPRP | 0.532
RRIRTRPPRLPRPRPRPMCHPRP | -0.228
RRIRNRPPRLPRPRPRPCHVPRP | 0.0112
RRIRTRPPRLPRPRPRPLSMPRP | -0.238
RRIRMRPPRLPRPRPRPDMIPRP | -0.00213

Sequence | shrunken log2 fold change
RRIRWRPPRLPRPRPRPNERPRP | 0.119
RRIRSRPPRLPRPRPRPNRSPRP | -0.0737
RRIRRRPPRLPRPRPRPTHWPRP | 0.988
RRIRCRPPRLPRPRPRPPYCPRP | -0.365
RRIRPRPPRLPRPRPRPPRCPRP | 0.408
RRIRCRPPRLPRPRPRPMGPPRP | 0.128
RRIRSRPPRLPRPRPRPRMYPRP | -0.113
RRIRWRPPRLPRPRPRPGLFPRP | 2.38
RRIRARPPRLPRPRPRPCKSPRP | 0.0355
RRIRIRPPRLPRPRPRPLTTPRP | -0.148
RRIRCRPPRLPRPRPRPKWHPRP | -0.169
RRIRRRPPRLPRPRPRPANIPRP | 0.256
RRIRARPPRLPRPRPRPFITPRP | -0.543
RRIRIRPPRLPRPRPRPTHSPRP | -0.469
RRIRFRPPRLPRPRPRPMWNPRP | -0.363
RRIRGRPPRLPRPRPRPNSAPRP | 0.749
RRIRHRPPRLPRPRPRPCYKPRP | -0.522
RRIRFRPPRLPRPRPRPLGPPRP | 0.148
RRIRFRPPRLPRPRPRPELQPRP | 0.348
RRIRVRPPRLPRPRPRPRIHPRP | -0.219
RRIRPRPPRLPRPRPRPGVLPRP | 0.219
RRIRKRPPRLPRPRPRPCVSPRP | -0.376
RRIRERPPRLPRPRPRPEEEPRP | 0.102
RRIRKRPPRLPRPRPRPKVNPRP | 0.0581
RRIRSRPPRLPRPRPRPWSRPRP | -0.199

Sequence | shrunken log2 fold change
RRIRARPPRLPRPRPRPRLCPRP | 0.574
RRIRERPPRLPRPRPRPDKFPRP | -0.466
RRIRKRPPRLPRPRPRPPHMPRP | 0.208
RRIRIRPPRLPRPRPRPQFIPRP | -0.782
RRIRWRPPRLPRPRPRPNMCPRP | -0.0387
RRIRYRPPRLPRPRPRPYMGPRP | -0.019
RRIRVRPPRLPRPRPRPWMYPRP | -0.225
RRIRCRPPRLPRPRPRPTLEPRP | 0.0452
RRIRTRPPRLPRPRPRPMTCPRP | -0.0817
RRIRARPPRLPRPRPRPTRDPRP | 0.759
RRIRVRPPRLPRPRPRPQITPRP | -0.229
RRIRNRPPRLPRPRPRPRPDPRP | 0.0914
RRIRPRPPRLPRPRPRPPYKPRP | -0.113
RRIRERPPRLPRPRPRPPCMPRP | -0.272
RRIRERPPRLPRPRPRPTVCPRP | 0.141
RRIRMRPPRLPRPRPRPYCMPRP | -0.53
RRIRLRPPRLPRPRPRPSREPRP | -0.104
RRIRPRPPRLPRPRPRPNLDPRP | 0.109
RRIRGRPPRLPRPRPRPHLRPRP | -0.148
RRIRSRPPRLPRPRPRPTYRPRP | -0.195
RRIRFRPPRLPRPRPRPYDWPRP | -0.147
RRIRGRPPRLPRPRPRPLRFPRP | 0.917
RRIRMRPPRLPRPRPRPKMAPRP | 2.29
RRIRWRPPRLPRPRPRPTGLPRP | 0.0239
RRIRHRPPRLPRPRPRPHPRPRP | 0.224

Sequence | shrunken log2 fold change
RRIRCRPPRLPRPRPRPQVIPRP | -0.386
RRIRWRPPRLPRPRPRPWQNPRP | -0.159
RRIRCRPPRLPRPRPRPSRGPRP | 0.333
RRIRCRPPRLPRPRPRPLALPRP | -0.621
RRIRNRPPRLPRPRPRPMNLPRP | 0.0249
RRIRWRPPRLPRPRPRPVQGPRP | -0.124
RRIRERPPRLPRPRPRPFSLPRP | -0.2
RRIRIRPPRLPRPRPRPAPYPRP | -0.406
RRIRHRPPRLPRPRPRPGHWPRP | -0.0325
RRIRTRPPRLPRPRPRPKPNPRP | 0.186
RRIRVRPPRLPRPRPRPVMHPRP | -0.0179
RRIRYRPPRLPRPRPRPWREPRP | 0.0494
RRIRARPPRLPRPRPRPWSRPRP | -0.151
RRIRMRPPRLPRPRPRPSCQPRP | 0.166
RRIRHRPPRLPRPRPRPHAGPRP | -0.245
RRIRYRPPRLPRPRPRPLSLPRP | -1.1
RRIRHRPPRLPRPRPRPIVWPRP | -0.2
RRIRRRPPRLPRPRPRPVFDPRP | 0.348
RRIRCRPPRLPRPRPRPCEMPRP | -0.151
RRIRVRPPRLPRPRPRPRWEPRP | 0.329
RRIRSRPPRLPRPRPRPIDNPRP | -0.163
RRIRMRPPRLPRPRPRPITTPRP | -0.0401
RRIRMRPPRLPRPRPRPYMCPRP | 0.00451
RRIRVRPPRLPRPRPRPQFSPRP | -0.0362
RRIRERPPRLPRPRPRPATWPRP | -0.014

Sequence | shrunken log2 fold change
RRIRARPPRLPRPRPRPTTRPRP | 0.61
RRIRCRPPRLPRPRPRPFTSPRP | -0.152
RRIRQRPPRLPRPRPRPNVLPRP | -0.0544
RRIRMRPPRLPRPRPRPYPFPRP | -0.0613
RRIRDRPPRLPRPRPRPMREPRP | -0.0167
RRIRMRPPRLPRPRPRPQYSPRP | 0.0353
RRIRMRPPRLPRPRPRPQERPRP | -0.00224
RRIRYRPPRLPRPRPRPHIMPRP | -0.955
RRIRMRPPRLPRPRPRPVLGPRP | 0.741
RRIRWRPPRLPRPRPRPYEVPRP | -0.114
RRIRCRPPRLPRPRPRPAIHPRP | -0.248
RRIRARPPRLPRPRPRPVDYPRP | 0.197
RRIRTRPPRLPRPRPRPFRHPRP | 0.00803
RRIRNRPPRLPRPRPRPICMPRP | -0.195
RRIRGRPPRLPRPRPRPFHKPRP | -0.411
RRIRYRPPRLPRPRPRPQTHPRP | -1.08
RRIRERPPRLPRPRPRPWGSPRP | -0.0459
RRIRCRPPRLPRPRPRPGSNPRP | -0.915
RRIRFRPPRLPRPRPRPLCWPRP | 0.135
RRIRHRPPRLPRPRPRPIPDPRP | -0.275
RRIRTRPPRLPRPRPRPVMLPRP | -0.157
RRIRERPPRLPRPRPRPNPRPRP | 0.134
RRIRVRPPRLPRPRPRPRYAPRP | -0.000525
RRIRMRPPRLPRPRPRPWSTPRP | -0.144
RRIRLRPPRLPRPRPRPQPIPRP | 0.0892
